This is an account of results in the supplement of paper PMC12855868.

First the molecules themselves.
B1: library; numbered along this chain (parent)
chain: MAAAGGARLLRAASAVLGGPAGRWLHHAGSRAGSSGLLRNRGPGGSAEASRSLSVSARARSSSEDKITVHFINRDGETLTTKGKVGDSLLDVVVENNLDIDGFGACEGTLACSTCHLIFEDHIYEKLDAITDEENDMLDLAYGLTDRSRLGCQICLTKSMDNMTVRVPETVADARQSIDVGKTS

The variants in this data set derive from B1. The data set can be described thus: scaled log2 fold change in cell abundance, elesclomol vs control (0 = silent mean, 1 = nonsense mean) (scaled log2 ratio); higher = higher viability under elesclomol (loss of FDX1 cuproptosis function). Particulars: glucose 10 mM. The method, then: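 Deep mutational scan of full-length human FDX1: a pooled saturation-mutagenesis ORF library (every residue 2-184 mutated to all 19 amino acids plus stop, and silent codons where available) was expressed by lentivirus in FDX1-knockout ABC1 (14 days) or HEK293T (11 days) cells grown with elesclomol (ES) or DMSO control. Variant abundance came from ORF sequencing. The log2 fold change (ES vs control, mean of duplicates) was centred on the silent-variant mean (0) and scaled to the nonsense-variant mean (1). Higher values mean greater viability under ES, i.e. loss of FDX1 function in cuproptosis.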

Setting [1] is: with ABC1 FDX1 KO, elesclomol 5 nM, 14 days.
The mark [2] stands for this setting: with HEK293T FDX1 KO, elesclomol 40 nM, 11 days.
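Further: variant abundance is its share of total variant reads in each endpoint sample, from next-generation sequencing of the integrated ORF PCR-amplified out of genomic DNA.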

For H27P, the “scaled log2 fold change” value under setting [1] was -0.143. For the variant H27Y, the “scaled log2 fold change” value is -0.231 under setting [1] and 0.0795 under setting [2]. Take H27C: the “scaled log2 fold change” value was 0.145 under setting [1] and -0.412 under setting [2]. With H27M, the “scaled log2 fold change” value under setting [1] turned out to be 0.0388.

Take H27I: the “scaled log2 fold change” value is -0.11 under setting [1] and 1.23 under setting [2]. The corresponding values for H27E are -0.316 and -0.0257.

Take H27A: the “scaled log2 fold change” value under setting [1] is -0.0135 and the “scaled log2 fold change” value under setting [2] worked out at 0.337. For the variant H27T, under setting [1], the “scaled log2 fold change” value was -0.307.

With H27W, the “scaled log2 fold change” value runs as follows: under setting [1], -0.436; under setting [2], 0.305. As to A28C, the “scaled log2 fold change” value is 0.232 under setting [1] and 0.15 under setting [2]. Consider A28D, for which the “scaled log2 fold change” value by setting is: under setting [1], 0.233; under setting [2], -0.109. Consider A28N, for which the “scaled log2 fold change” value was -0.0865 under setting [1] and -0.0101 under setting [2]. For A28F, the “scaled log2 fold change” value by setting is: under setting [1], 0.368; under setting [2], 0.0914. Take A28K: the “scaled log2 fold change” value reads like this: under setting [1], -0.114; under setting [2], 0.248. As for A28R, the “scaled log2 fold change” value stood at 0.246 under setting [1] and 2.14 under setting [2]. For A28E, the “scaled log2 fold change” value runs as follows: under setting [1], 0.301; under setting [2], -0.431.

As for A28G, the “scaled log2 fold change” value was 0.336 under setting [1] and 1.17 under setting [2].

In the case of A28V, the “scaled log2 fold change” value is, setting by setting: under setting [1], 0.133; under setting [2], -0.408. Regarding A28W, the “scaled log2 fold change” value is, setting by setting: under setting [1], -0.122; under setting [2], 0.863. On to A28I, for which the “scaled log2 fold change” value by setting is: under setting [1], -0.00142; under setting [2], 0.691.

Consider A28Y, for which the “scaled log2 fold change” value is, setting by setting: under setting [1], -0.00855; under setting [2], 0.974. Consider A28S, for which the “scaled log2 fold change” value was -0.179 under setting [1] and -0.13 under setting [2]. In the same order, the values of A28Q are 0.264 and 0.224. The corresponding values for A28H are -0.736 and -0.127. Regarding A28L, the “scaled log2 fold change” value under setting [1] was -0.00195. A28P: the “scaled log2 fold change” value under setting [1] is 0.56 and the “scaled log2 fold change” value under setting [2] amounted to 0.292. In the case of A28M, the “scaled log2 fold change” value is, setting by setting: under setting [1], -0.0504; under setting [2], -0.198.

As for A28T, the “scaled log2 fold change” value under setting [1] is -0.152. Regarding S34D, the “scaled log2 fold change” value is, setting by setting: under setting [1], 0.0928; under setting [2], -0.389. In the case of S34M, the “scaled log2 fold change” value under setting [1] is -0.108 and the “scaled log2 fold change” value under setting [2] came to 0.216. Turning to S34L, the “scaled log2 fold change” value is, setting by setting: under setting [1], 0.0704; under setting [2], -0.513. Take S34Q: the “scaled log2 fold change” value under setting [1] was -0.0397 and the “scaled log2 fold change” value under setting [2] was -0.168. Turning to S34F, the “scaled log2 fold change” value runs as follows: under setting [1], 0.0028; under setting [2], -0.301. With S34P, the “scaled log2 fold change” value by setting is: under setting [1], -0.325; under setting [2], -0.116. In the same order, the values of S34W are 0.0117 and 0.853. For the variant S34Y, the “scaled log2 fold change” value is 0.029 under setting [1] and -0.188 under setting [2]. S34E: the “scaled log2 fold change” value is -0.124 under setting [1] and -0.639 under setting [2]. Regarding S34G, the “scaled log2 fold change” value is 0.285 under setting [1] and -0.277 under setting [2]. Turning to S34K, the “scaled log2 fold change” value runs as follows: under setting [1], 0.146; under setting [2], -0.467.

Consider S34V, for which the “scaled log2 fold change” value by setting is: under setting [1], 0.0515; under setting [2], -1.09. For the variant S34A, the “scaled log2 fold change” value was -0.221 under setting [1] and -0.449 under setting [2]. For the variant S34N, the “scaled log2 fold change” value runs as follows: under setting [1], 0.0794; under setting [2], 0.424. In the same order, the values of S34R are -0.433 and 0.662. With S34H, the “scaled log2 fold change” value under setting [1] stood at 0.251 and the “scaled log2 fold change” value under setting [2] was -0.957. On to S34T, for which the “scaled log2 fold change” value under setting [1] was 0.125 and the “scaled log2 fold change” value under setting [2] was -0.0688.

With S34I, the “scaled log2 fold change” value reads like this: under setting [1], -0.128; under setting [2], -0.488. S34C: the “scaled log2 fold change” value runs as follows: under setting [1], 0.0357; under setting [2], 0.188. In the case of R31T, the “scaled log2 fold change” value was -0.552 under setting [1] and -0.717 under setting [2].

On to R31P, for which the “scaled log2 fold change” value is 0.561 under setting [1] and -0.0123 under setting [2]. In the case of R31M, under setting [1], the “scaled log2 fold change” value is 0.66. Turning to R31V, under setting [1], the “scaled log2 fold change” value worked out at 0.267. Take R31F: the “scaled log2 fold change” value under setting [1] is -0.116 and the “scaled log2 fold change” value under setting [2] is 0.357.

Consider R31W, for which the “scaled log2 fold change” value under setting [1] is -0.118 and the “scaled log2 fold change” value under setting [2] is -0.246. Regarding R31H, the “scaled log2 fold change” value under setting [1] was -0.603.

Turning to R31G, the “scaled log2 fold change” value was 0.358 under setting [1] and -0.248 under setting [2]. Consider R31N, for which, under setting [1], the “scaled log2 fold change” value is -0.000941. For R31A, the “scaled log2 fold change” value under setting [1] stood at 0.317. Turning to R31I, the “scaled log2 fold change” value under setting [1] came out at 0.762. As to R31Y, the “scaled log2 fold change” value by setting is: under setting [1], 0.463; under setting [2], -0.658. R31S: the “scaled log2 fold change” value is, setting by setting: under setting [1], 0.29; under setting [2], 0.11.

Take R31E: the “scaled log2 fold change” value under setting [1] was -0.00724. With R31Q, the “scaled log2 fold change” value worked out at 0.031 under setting [1] and 0.166 under setting [2].
